Values of other authors as cited in doi:10.1101/2024.09.16.613101.

What was measured:
His57 = His57 (UniProt position 57, VVTAAHCGVTT); settings: not stated (the structure used for prediction is described as the apoenzyme)
Cys46 = Cys46 (UniProt position 47, DFTFVCPTELG)
His92 = His92 (UniProt position 118, AGVITHTGASG); assay: NMR; settings: native (folded) state, according to the title of ref 70; ligand state not stated
Glu58 = Glu58 (UniProt position 84, SSPYYEWPILS); assay: NMR; settings: native (folded) state, according to the title of ref 70; ligand state not stated
Glu28 = Glu28 (UniProt position 54, GYQLHEDGETV); assay: NMR; settings: native (folded) state, according to the title of ref 70; ligand state not stated
His27 = His27 (UniProt position 53, AGYQLHEDGET); assay: NMR; settings: native (folded) state, according to the title of ref 70; ligand state not stated
His40 = His40 (UniProt position 66, SNSYPHKYNNY); assay: NMR; settings: native (folded) state, according to the title of ref 70; ligand state not stated

In the case of chymotrypsin, the pKa (His57) is given as 7.5.
For “peroxiredoxin AhpC (alkyl hydroperoxide reductase subunit C) (bacterial (species not stated in the article))”, the pKa (Cys46) is listed as 5.94.
In the case of “ribonuclease T1 (Aspergillus oryzae (not stated in the article; inferred))”, the pKa (His92) is given as 7.31, the pKa (Glu58) is given as 3.96 and the pKa (Glu28) is given as 5.61. The pKa (His27) was 7.57 and the pKa (His40) was 7.44.
